# B1: Serine/threonine-protein kinase Nek2 (Homo sapiens), P51955 (parent)
# chain: MPSRAEDYEVLYTIGTGSYGRCQKIRRKSDGKILVWKELDYGSMTEAEKQMLVSEVNLLRELKHPNIVRYYDRIIDRTNTTLYIVMEYCEGGDLASVITKGTKERQYLDEEFVLRVMTQLTLALKECHRRSDGGHTVLHRDLKPANVFLDGKQNVKLGDFGLARILNHDTSFAKTFVGTPYYMSPEQMNRMSYNEKSDIWSLGCLLYELCALMPPFTAFSQKELAGKIREGKFRRIPYRYSDELNEIITRMLNLKDYHRPSVEEILENPLIADLVADEQRRNLERRGRQLGEPEKSQDSSPVLSELKLKEIQLQERERALKAREERLEQKEQELCVRERLAEDKLARAENLLKNYSLLKERKFLSLASNPELLNLPSSVIKKKVHFSGESKENIMRSENSESQLTSKSKCKDLKKRLHAAQLRAQALSDIEKNYQLKSRQILGMR
# partner: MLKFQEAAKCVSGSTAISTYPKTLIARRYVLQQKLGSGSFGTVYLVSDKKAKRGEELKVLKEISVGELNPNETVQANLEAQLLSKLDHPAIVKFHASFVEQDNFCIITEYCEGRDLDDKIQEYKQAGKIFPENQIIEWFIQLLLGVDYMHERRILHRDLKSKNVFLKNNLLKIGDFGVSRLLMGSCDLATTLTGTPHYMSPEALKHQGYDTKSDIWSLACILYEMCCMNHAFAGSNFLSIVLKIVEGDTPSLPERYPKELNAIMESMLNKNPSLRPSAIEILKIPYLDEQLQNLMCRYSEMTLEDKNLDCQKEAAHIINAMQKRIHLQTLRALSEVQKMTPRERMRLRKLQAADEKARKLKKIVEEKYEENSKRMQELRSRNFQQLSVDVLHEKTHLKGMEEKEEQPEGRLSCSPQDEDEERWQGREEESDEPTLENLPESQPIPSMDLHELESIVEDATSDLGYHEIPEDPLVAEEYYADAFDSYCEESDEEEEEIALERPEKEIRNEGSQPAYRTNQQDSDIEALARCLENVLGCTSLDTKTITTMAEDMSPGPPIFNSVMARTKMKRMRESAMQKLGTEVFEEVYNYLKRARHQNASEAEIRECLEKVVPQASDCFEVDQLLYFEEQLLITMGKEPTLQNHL
# Variants of: B1
# Settings: with nek11_human NEK11, Q8NG66
row,effect of a mutation on the interaction,Variant
1,decreasing interaction,MPSRAEDYEVLYTIGTGSYGRCQKIRRKSDGKILVWRELDYGSMTEAEKQMLVSEVNLLRELKHPNIVRYYDRIIDRTNTTLYIVMEYCEGGDLASVITKGTKERQYLDEEFVLRVMTQLTLALKECHRRSDGGHTVLHRDLKPANVFLDGKQNVKLGDFGLARILNHDTSFAKTFVGTPYYMSPEQMNRMSYNEKSDIWSLGCLLYELCALMPPFTAFSQKELAGKIREGKFRRIPYRYSDELNEIITRMLNLKDYHRPSVEEILENPLIADLVADEQRRNLERRGRQLGEPEKSQDSSPVLSELKLKEIQLQERERALKAREERLEQKEQELCVRERLAEDKLARAENLLKNYSLLKERKFLSLASNPELLNLPSSVIKKKVHFSGESKENIMRSENSESQLTSKSKCKDLKKRLHAAQLRAQALSDIEKNYQLKSRQILGMR [K37R]

# Variants of: B1
# Settings: with nek11_human NEK11, Q8NG66
# Remark: another data set of the same source
row,effect of a mutation on the interaction,Variant
1,increasing interaction,MPSRAEDYEVLYTIGTGSYGRCQKIRRKSDGKILVWRELDYGSMTEAEKQMLVSEVNLLRELKHPNIVRYYDRIIDRTNTTLYIVMEYCEGGDLASVITKGTKERQYLDEEFVLRVMTQLTLALKECHRRSDGGHTVLHRDLKPANVFLDGKQNVKLGDFGLARILNHDTSFAKTFVGTPYYMSPEQMNRMSYNEKSDIWSLGCLLYELCALMPPFTAFSQKELAGKIREGKFRRIPYRYSDELNEIITRMLNLKDYHRPSVEEILENPLIADLVADEQRRNLERRGRQLGEPEKSQDSSPVLSELKLKEIQLQERERALKAREERLEQKEQELCVRERLAEDKLARAENLLKNYSLLKERKFLSLASNPELLNLPSSVIKKKVHFSGESKENIMRSENSESQLTSKSKCKDLKKRLHAAQLRAQALSDIEKNYQLKSRQILGMR [K37R]
